Assay results reported in publication PMC4382182, “Characterization of Phospho-(Tyrosine)-Mimetic Calmodulin Mutants” (PLoS ONE, 2015).

Target: endothelial nitric oxide synthase (eNOS) (bovine recombinant baculovirus-expressed in Sf9 cells) (bovine) (UniProt P29473)
Sequence (P29473 whole entry): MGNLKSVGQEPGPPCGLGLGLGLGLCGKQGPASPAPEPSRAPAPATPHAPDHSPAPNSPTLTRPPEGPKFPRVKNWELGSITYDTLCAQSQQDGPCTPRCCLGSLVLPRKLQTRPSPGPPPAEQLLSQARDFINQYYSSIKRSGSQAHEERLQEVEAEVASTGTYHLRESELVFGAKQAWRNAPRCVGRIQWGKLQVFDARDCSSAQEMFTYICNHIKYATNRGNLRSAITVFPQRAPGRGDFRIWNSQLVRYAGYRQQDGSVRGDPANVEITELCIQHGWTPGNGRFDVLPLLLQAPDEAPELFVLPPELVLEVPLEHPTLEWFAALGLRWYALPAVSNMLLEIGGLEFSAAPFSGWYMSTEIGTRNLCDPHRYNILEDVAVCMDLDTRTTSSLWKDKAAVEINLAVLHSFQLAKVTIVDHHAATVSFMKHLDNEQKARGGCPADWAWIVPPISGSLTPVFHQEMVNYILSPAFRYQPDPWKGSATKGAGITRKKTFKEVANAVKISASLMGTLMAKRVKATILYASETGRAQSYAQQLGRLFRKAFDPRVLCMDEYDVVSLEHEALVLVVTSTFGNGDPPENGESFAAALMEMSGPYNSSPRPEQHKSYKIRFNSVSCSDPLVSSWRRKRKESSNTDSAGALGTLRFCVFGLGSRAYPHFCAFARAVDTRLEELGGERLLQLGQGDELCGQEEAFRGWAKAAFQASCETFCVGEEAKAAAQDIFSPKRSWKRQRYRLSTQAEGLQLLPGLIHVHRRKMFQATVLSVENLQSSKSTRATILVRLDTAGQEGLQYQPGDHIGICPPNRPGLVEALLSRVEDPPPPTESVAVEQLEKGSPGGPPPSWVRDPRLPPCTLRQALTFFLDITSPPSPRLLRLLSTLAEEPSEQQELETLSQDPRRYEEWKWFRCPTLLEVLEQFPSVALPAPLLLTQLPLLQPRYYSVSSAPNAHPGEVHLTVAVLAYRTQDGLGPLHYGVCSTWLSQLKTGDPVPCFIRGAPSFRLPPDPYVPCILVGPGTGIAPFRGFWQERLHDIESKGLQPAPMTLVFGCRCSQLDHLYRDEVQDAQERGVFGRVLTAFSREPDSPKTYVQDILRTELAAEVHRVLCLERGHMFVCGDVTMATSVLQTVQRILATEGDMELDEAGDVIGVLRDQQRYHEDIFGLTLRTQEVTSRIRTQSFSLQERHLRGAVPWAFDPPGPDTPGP

increase of eNOS activity by phospho-(Y)-CaM over that by non-phosphorylated CaM, at increasing concentrations of CaM: 30%
Substance: purified bovine brain phospho-(Y)-CaM (phosphorylated by c-Src and free of non-phosphorylated CaM) (from UniProt P62157 1-149) (natural protein)
